From article PMC11417371, “ENL reads histone β-hydroxybutyrylation to modulate gene transcription” (Nucleic Acids Research, 2024)

T1: AF9 (UniProt P42568 1-568)
T1 construct: AF9 (MLLT3), a YEATS domain-containing protein
T1 sequence (looked up): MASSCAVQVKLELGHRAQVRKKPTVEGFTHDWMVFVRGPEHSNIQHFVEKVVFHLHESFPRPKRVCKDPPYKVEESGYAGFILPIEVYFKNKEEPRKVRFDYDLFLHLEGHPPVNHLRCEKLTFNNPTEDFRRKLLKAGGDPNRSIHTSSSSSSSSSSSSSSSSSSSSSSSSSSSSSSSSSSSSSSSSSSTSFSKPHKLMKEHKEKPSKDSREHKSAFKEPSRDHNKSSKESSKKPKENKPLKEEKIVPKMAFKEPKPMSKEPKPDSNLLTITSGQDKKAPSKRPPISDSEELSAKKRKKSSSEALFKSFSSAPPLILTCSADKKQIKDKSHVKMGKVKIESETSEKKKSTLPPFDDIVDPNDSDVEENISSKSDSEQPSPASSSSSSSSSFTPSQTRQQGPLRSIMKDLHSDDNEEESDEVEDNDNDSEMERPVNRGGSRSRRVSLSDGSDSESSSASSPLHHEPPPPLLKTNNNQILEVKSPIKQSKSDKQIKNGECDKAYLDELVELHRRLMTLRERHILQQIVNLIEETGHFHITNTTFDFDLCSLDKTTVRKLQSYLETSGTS


Key:
[1] = biological target: Probe H3K9bhb (Kbhb-installed histone H3 peptide on gold nanoparticles with photo-cross-linker-linked PEG); assay: affinity purification with mass spectrometry; photoaffinity enrichment with probes H3K9bhb and H3K9, read out by parallel reaction monitoring (PRM) mass spectrometry
AF9 = biological target: T1, AF9; assay: ITC; MicroCal PEAQ ITC, 15°C; protein at 100 μM dropped into the 1000 μM peptide, 19 drops; one set of binding sites model; settings: both partners purified
GAS41 = biological target: T2, GAS41 (UniProt O95619 1-227); assay: as above; settings: both partners purified
T2 construct: GAS41 (YEATS4), a YEATS domain-containing protein
T2 sequence (O95619 whole entry, the tested form may be a part): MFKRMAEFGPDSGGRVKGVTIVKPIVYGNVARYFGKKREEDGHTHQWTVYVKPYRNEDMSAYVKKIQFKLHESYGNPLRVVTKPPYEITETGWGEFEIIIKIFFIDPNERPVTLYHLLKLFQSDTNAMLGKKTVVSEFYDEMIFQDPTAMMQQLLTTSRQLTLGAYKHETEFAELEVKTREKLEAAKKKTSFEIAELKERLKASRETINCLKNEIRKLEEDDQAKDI

fold enrichment over probe H3K9 [1] | Kd (AF9) | Kd (GAS41) | Binder
3.9 fold |  |  | ENL (endogenous) (natural protein) MDNQCTVQVRLELGHRAQLRKKPTTEGFTHDWMVFVRGPEQCDIQHFVEKVVFWLHDSFPKPRRVCKEPPYKVEESGYAGFIMPIEVHFKNKEEPRKVCFTYDLFLNLEGNPPVNHLRCEKLTFNNPTTEFRYKLLRAGGVMVMPEGADTVSRPSPDYPMLPTIPLSAFSDPKKTKPSHGSKDANKESSKTSKPHKVTKEHRERPRKDSESKSSSKELEREQAKSSKDTSRKLGEGRLPKEEKAPPPKAAFKEPKMALKETKLESTSPKGGPPPPPPPPPRASSKRPATADSPKPSAKKQKKSSSKGSRSAPGTSPRTSSSSSFSDKKPAKDKSSTRGEKVKAESEPREAKKALEVEESNSEDEASFKSESAQSSPSNSSSSSDSSSDSDFEPSQNHSQGPLRSMVEDLQSEESDEDDSSSGEEAAGKTNPGRDSRLSFSDSESDNSADSSLPSREPPPPQKPPPPNSKVSGRRSPESCSKPEKILKKGTYDKAYTDELVELHRRLMALRERNVLQQIVNLIEETGHFNVTNTTFDFDLFSLDETTVRKLQSCLEAVAT
 | 11 µM | 6.7 µM | ARTKQTARKSTGGKAPR (peptide, UniProt P68431 2-18, looked up, β-hydroxybutyryl-lysine at K9, histone H3, residues 1-17; The text calls the ITC peptides 'histone H3K14 (1–17) peptides', the legend 'H31-17 peptides'; also called H3K9bhb peptide; source: synthetic peptide (Beijing SciLight Biotechnology, HPLC purified)) [β-hydroxybutyryl histone H3 1-17 peptide (H3K9bhb)]
